Experiments:
[1] = target: Rabbit skeletal muscle actin (RMA), as filaments (rabbit) (UniProt P68135)
[2] = target: GST-549-SNAP-N-IQGAP1 (GST-SNAP-N-IQGAP1-6His, 1-522) (UniProt P46940); test: single-molecule step photobleaching
[3] = target: Rabbit skeletal muscle actin (RMA), as filaments (rabbit) (UniProt P68135); test: single-molecule microfluidics-assisted TIRF microscopy

barbed end depolymerization rate in mf-TIRF: IC50 of N-IQGAP1 [1] [pM]	stoichiometry N [2]	average dwell time on filament sides [3] [min]	koff [3] [s⁻¹]	Substance
300	–	–	–	6His-N-IQGAP1 (1-522) (from UniProt P46940 1-522) (domain or fragment)
–	2	6.8	0.0025	GST-549-SNAP-N-IQGAP1 (GST-SNAP-N-IQGAP1-6His, 1-522) (from UniProt P46940 1-522) (domain or fragment)

Reference: publication doi:10.1101/2021.04.18.440338
